Reference: patent publication US20220204580A1 (AstraZeneca / MedImmune, published 2022)
Numbered stars: 1 amine (or outer) side, 2 acyl side, 3 side chain; on linkers, the order of the positions; unused ones are H or OH. Bridge positions count the residues as written; N and C are the ends. Square brackets hold non-standard residues; d marks the D form. Side chains are listed from the residue outwards. Ends that are not written are not given here. * marks the point of attachment. C18 diacid = O=C(O)CCCCCCCCCCCCCCCCC(=O)*; γGlu = O=C(O)[C@H](CCC(=O)[*:2])N[*:1]; Aib = CC(C)(N)C(=O)O

Legend:
[1] = biological target: T1, human amylin receptor (calcitonin receptor co-expressed with receptor activity modifying protein, RAMP3) (human, UniProt P30988 25-474; O60896 24-148); experiment: cell-based or functional assay
T1 sequence (looked up) 1: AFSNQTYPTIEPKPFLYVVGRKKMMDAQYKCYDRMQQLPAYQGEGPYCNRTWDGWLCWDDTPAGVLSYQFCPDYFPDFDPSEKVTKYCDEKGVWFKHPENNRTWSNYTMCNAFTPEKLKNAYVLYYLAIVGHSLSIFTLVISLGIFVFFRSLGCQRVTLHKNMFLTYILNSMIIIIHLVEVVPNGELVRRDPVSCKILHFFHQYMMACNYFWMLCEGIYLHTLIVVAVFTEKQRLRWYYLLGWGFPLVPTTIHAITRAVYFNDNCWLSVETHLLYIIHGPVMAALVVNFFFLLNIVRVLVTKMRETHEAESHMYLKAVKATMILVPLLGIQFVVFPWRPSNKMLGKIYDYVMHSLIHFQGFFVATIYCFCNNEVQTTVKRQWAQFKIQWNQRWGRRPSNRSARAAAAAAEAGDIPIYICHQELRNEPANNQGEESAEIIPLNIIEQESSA
T1 sequence (looked up) 2: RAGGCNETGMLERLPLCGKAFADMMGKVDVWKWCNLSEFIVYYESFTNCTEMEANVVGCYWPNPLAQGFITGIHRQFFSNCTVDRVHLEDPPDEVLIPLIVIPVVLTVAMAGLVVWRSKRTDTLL

[2] = biological target: T2, human calcitonin receptor (human, UniProt P30988 25-474); experiment: cell-based or functional assay
T2 sequence (looked up): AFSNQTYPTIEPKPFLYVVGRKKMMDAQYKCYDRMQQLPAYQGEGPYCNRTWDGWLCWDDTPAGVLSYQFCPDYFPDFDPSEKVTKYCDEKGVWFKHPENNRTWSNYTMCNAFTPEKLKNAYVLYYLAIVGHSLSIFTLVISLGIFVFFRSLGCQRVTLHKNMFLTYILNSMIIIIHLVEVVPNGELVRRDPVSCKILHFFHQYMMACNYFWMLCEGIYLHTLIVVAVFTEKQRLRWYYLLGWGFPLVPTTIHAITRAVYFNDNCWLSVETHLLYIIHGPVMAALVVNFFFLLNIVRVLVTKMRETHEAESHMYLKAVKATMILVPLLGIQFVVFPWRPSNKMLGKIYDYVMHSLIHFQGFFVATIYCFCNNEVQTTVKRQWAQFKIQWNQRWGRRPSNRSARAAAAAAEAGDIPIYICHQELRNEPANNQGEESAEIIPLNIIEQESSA

Binder | EC50 (cAMP production) [1] | Ratio (EC50 hCTR / EC50 hAMYR3) [1] | EC50 (cAMP production) [2]
K([γGlu-C18 diacid])KCNTATCATQRLANFLVHSS[Aib]NFGPIL[Aib]PTNVGSNTY-NH2 (disulfide 3-8; N-terminus assumed; SMILES CC[C@H](C)[C@H](NC(=O)[C@@H]1CCCN1C(=O)CNC(=O)[C@H](Cc1ccccc1)NC(=O)[C@H](CC(N)=O)NC(=O)C(C)(C)NC(=O)[C@H](CO)NC(=O)[C@H](CO)NC(=O)[C@H](Cc1c[nH]cn1)NC(=O)[C@@H](NC(=O)[C@H](CC(C)C)NC(=O)[C@H](Cc1ccccc1)NC(=O)[C@H](CC(N)=O)NC(=O)[C@H](C)NC(=O)[C@H](CC(C)C)NC(=O)[C@H](CCCNC(=N)N)NC(=O)[C@H](CCC(N)=O)NC(=O)[C@@H](NC(=O)[C@H](C)NC(=O)[C@@H]1CSSC[C@H](NC(=O)[C@H](CCCCN)NC(=O)[C@@H](N)CCCCNC(=O)CC[C@H](NC(=O)CCCCCCCCCCCCCCCCC(=O)O)C(=O)O)C(=O)N[C@@H](CC(N)=O)C(=O)N[C@@H]([C@@H](C)O)C(=O)N[C@@H](C)C(=O)N[C@@H]([C@@H](C)O)C(=O)N1)[C@@H](C)O)C(C)C)C(=O)N[C@@H](CC(C)C)C(=O)NC(C)(C)C(=O)N1CCC[C@H]1C(=O)N[C@H](C(=O)N[C@@H](CC(N)=O)C(=O)N[C@H](C(=O)NCC(=O)N[C@@H](CO)C(=O)N[C@@H](CC(N)=O)C(=O)N[C@H](C(=O)N[C@@H](Cc1ccc(O)cc1)C(N)=O)[C@@H](C)O)C(C)C)[C@@H](C)O) [Peptide 88 (SEQ ID NO: 88)] | 0.281 nM | 4 | 1.17 nM
K([γGlu-γGlu-C18 diacid])CNTATCATQRLANFLVHSS[Aib]NFGPILPPT[Aib]VGSNTY-NH2 (disulfide 2-7) [Peptide 89 (SEQ ID NO: 89)] | 0.447 nM | 18 | 8.24 nM
K([γGlu-γGlu-C18 diacid])CNTATCATQRLANFLRHSS[Aib]NFGPILPPT[Aib]VGSNTY-NH2 (disulfide 2-7; N-terminus assumed; SMILES CC[C@H](C)[C@H](NC(=O)[C@@H]1CCCN1C(=O)CNC(=O)[C@H](Cc1ccccc1)NC(=O)[C@H](CC(N)=O)NC(=O)C(C)(C)NC(=O)[C@H](CO)NC(=O)[C@H](CO)NC(=O)[C@H](Cc1c[nH]cn1)NC(=O)[C@H](CCCNC(=N)N)NC(=O)[C@H](CC(C)C)NC(=O)[C@H](Cc1ccccc1)NC(=O)[C@H](CC(N)=O)NC(=O)[C@H](C)NC(=O)[C@H](CC(C)C)NC(=O)[C@H](CCCNC(=N)N)NC(=O)[C@H](CCC(N)=O)NC(=O)[C@@H](NC(=O)[C@H](C)NC(=O)[C@@H]1CSSC[C@H](NC(=O)[C@@H](N)CCCCNC(=O)CC[C@H](NC(=O)CC[C@H](NC(=O)CCCCCCCCCCCCCCCCC(=O)O)C(=O)O)C(=O)O)C(=O)N[C@@H](CC(N)=O)C(=O)N[C@@H]([C@@H](C)O)C(=O)N[C@@H](C)C(=O)N[C@@H]([C@@H](C)O)C(=O)N1)[C@@H](C)O)C(=O)N[C@@H](CC(C)C)C(=O)N1CCC[C@H]1C(=O)N1CCC[C@H]1C(=O)N[C@H](C(=O)NC(C)(C)C(=O)N[C@H](C(=O)NCC(=O)N[C@@H](CO)C(=O)N[C@@H](CC(N)=O)C(=O)N[C@H](C(=O)N[C@@H](Cc1ccc(O)cc1)C(N)=O)[C@@H](C)O)C(C)C)[C@@H](C)O) [Peptide 90 (SEQ ID NO: 90)] | 1.06 nM | 15 | 15.6 nM
K([γGlu-γGlu-C18 diacid])CNTATCATQRLANFLVHSS[Aib]NFGPILPPTNVGS[Aib]TY-NH2 (disulfide 2-7; N-terminus assumed; SMILES CC[C@H](C)[C@H](NC(=O)[C@@H]1CCCN1C(=O)CNC(=O)[C@H](Cc1ccccc1)NC(=O)[C@H](CC(N)=O)NC(=O)C(C)(C)NC(=O)[C@H](CO)NC(=O)[C@H](CO)NC(=O)[C@H](Cc1c[nH]cn1)NC(=O)[C@@H](NC(=O)[C@H](CC(C)C)NC(=O)[C@H](Cc1ccccc1)NC(=O)[C@H](CC(N)=O)NC(=O)[C@H](C)NC(=O)[C@H](CC(C)C)NC(=O)[C@H](CCCNC(=N)N)NC(=O)[C@H](CCC(N)=O)NC(=O)[C@@H](NC(=O)[C@H](C)NC(=O)[C@@H]1CSSC[C@H](NC(=O)[C@@H](N)CCCCNC(=O)CC[C@H](NC(=O)CC[C@H](NC(=O)CCCCCCCCCCCCCCCCC(=O)O)C(=O)O)C(=O)O)C(=O)N[C@@H](CC(N)=O)C(=O)N[C@@H]([C@@H](C)O)C(=O)N[C@@H](C)C(=O)N[C@@H]([C@@H](C)O)C(=O)N1)[C@@H](C)O)C(C)C)C(=O)N[C@@H](CC(C)C)C(=O)N1CCC[C@H]1C(=O)N1CCC[C@H]1C(=O)N[C@H](C(=O)N[C@@H](CC(N)=O)C(=O)N[C@H](C(=O)NCC(=O)N[C@@H](CO)C(=O)NC(C)(C)C(=O)N[C@H](C(=O)N[C@@H](Cc1ccc(O)cc1)C(N)=O)[C@@H](C)O)C(C)C)[C@@H](C)O) [Peptide 91 (SEQ ID NO: 91)] | 0.2 nM | 12 | 2.36 nM
K([γGlu-γGlu-C18 diacid])CNTATCATQRLANFLRHSS[Aib]NFGPILPPTNVGS[Aib]TY-NH2 (disulfide 2-7; N-terminus assumed; SMILES CC[C@H](C)[C@H](NC(=O)[C@@H]1CCCN1C(=O)CNC(=O)[C@H](Cc1ccccc1)NC(=O)[C@H](CC(N)=O)NC(=O)C(C)(C)NC(=O)[C@H](CO)NC(=O)[C@H](CO)NC(=O)[C@H](Cc1c[nH]cn1)NC(=O)[C@H](CCCNC(=N)N)NC(=O)[C@H](CC(C)C)NC(=O)[C@H](Cc1ccccc1)NC(=O)[C@H](CC(N)=O)NC(=O)[C@H](C)NC(=O)[C@H](CC(C)C)NC(=O)[C@H](CCCNC(=N)N)NC(=O)[C@H](CCC(N)=O)NC(=O)[C@@H](NC(=O)[C@H](C)NC(=O)[C@@H]1CSSC[C@H](NC(=O)[C@@H](N)CCCCNC(=O)CC[C@H](NC(=O)CC[C@H](NC(=O)CCCCCCCCCCCCCCCCC(=O)O)C(=O)O)C(=O)O)C(=O)N[C@@H](CC(N)=O)C(=O)N[C@@H]([C@@H](C)O)C(=O)N[C@@H](C)C(=O)N[C@@H]([C@@H](C)O)C(=O)N1)[C@@H](C)O)C(=O)N[C@@H](CC(C)C)C(=O)N1CCC[C@H]1C(=O)N1CCC[C@H]1C(=O)N[C@H](C(=O)N[C@@H](CC(N)=O)C(=O)N[C@H](C(=O)NCC(=O)N[C@@H](CO)C(=O)NC(C)(C)C(=O)N[C@H](C(=O)N[C@@H](Cc1ccc(O)cc1)C(N)=O)[C@@H](C)O)C(C)C)[C@@H](C)O) [Peptide 92 (SEQ ID NO: 92)] | 0.341 nM | 130 | 44.4 nM
